Data: the supplement of paper PMC10065799, “High-throughput profiling of sequence recognition by tyrosine kinases and SH2 domains using bacterial peptide display” (eLife, 2023)

What was measured:
[1] = biological target: SHP2-C SH2; assay: SH2 binding enrichment of the phosphorylated peptide, bacterial display (enrichment ratio); higher = better substrate or ligand; peptides without Tyr show the background
[2] = biological target: Grb2 SH2 (UniProt P62993); assay: as above
[3] = biological target: c-Src SH2; assay: as above
[4] = system: Fer (mouse); assay: phosphorylation enrichment, bacterial display (enrichment ratio); higher = better substrate or ligand; peptides without Tyr show the background
[5] = system: c-Abl (mouse); assay: as above
[6] = biological target: Fes (UniProt P07332); assay: as above
Fes, sequence (P07332 whole entry, looked up): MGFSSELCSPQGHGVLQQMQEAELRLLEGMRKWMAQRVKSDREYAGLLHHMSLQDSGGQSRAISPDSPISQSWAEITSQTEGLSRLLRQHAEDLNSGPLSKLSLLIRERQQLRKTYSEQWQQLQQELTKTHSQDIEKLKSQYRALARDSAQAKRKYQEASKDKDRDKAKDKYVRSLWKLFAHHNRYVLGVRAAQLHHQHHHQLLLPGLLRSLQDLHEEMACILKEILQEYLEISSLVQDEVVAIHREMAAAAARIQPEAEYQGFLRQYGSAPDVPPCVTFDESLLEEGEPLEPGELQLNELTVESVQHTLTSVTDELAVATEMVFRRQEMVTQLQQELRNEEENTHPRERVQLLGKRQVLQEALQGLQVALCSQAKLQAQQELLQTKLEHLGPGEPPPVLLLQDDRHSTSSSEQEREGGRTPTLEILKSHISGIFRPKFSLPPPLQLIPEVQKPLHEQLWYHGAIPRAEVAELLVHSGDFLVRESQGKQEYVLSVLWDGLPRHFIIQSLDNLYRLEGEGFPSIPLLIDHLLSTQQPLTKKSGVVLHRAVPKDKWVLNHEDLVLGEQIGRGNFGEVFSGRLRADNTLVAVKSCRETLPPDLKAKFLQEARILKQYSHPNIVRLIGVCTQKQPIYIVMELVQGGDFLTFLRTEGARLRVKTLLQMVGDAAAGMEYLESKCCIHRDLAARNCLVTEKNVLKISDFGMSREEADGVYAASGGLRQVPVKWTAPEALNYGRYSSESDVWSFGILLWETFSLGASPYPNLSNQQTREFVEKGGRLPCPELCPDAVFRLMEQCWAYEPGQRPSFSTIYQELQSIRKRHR

[7] = biological target: Fyn (UniProt P06241); assay: as above
Fyn, sequence (P06241 whole entry, looked up): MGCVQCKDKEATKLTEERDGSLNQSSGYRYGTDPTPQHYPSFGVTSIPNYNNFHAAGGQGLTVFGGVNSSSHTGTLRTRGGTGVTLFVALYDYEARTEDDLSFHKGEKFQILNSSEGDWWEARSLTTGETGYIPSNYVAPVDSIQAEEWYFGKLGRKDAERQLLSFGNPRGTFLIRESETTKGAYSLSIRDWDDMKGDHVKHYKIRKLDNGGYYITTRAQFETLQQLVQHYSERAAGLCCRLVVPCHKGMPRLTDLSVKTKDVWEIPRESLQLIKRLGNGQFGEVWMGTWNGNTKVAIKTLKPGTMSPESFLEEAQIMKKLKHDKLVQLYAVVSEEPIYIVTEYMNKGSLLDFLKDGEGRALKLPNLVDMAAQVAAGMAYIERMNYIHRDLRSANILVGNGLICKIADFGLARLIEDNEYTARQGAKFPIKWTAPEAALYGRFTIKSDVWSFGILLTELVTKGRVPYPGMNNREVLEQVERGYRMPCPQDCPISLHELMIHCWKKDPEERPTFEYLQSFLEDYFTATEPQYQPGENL

[8] = biological target: Hck (UniProt P08631); assay: as above
Hck, sequence (P08631 whole entry, looked up): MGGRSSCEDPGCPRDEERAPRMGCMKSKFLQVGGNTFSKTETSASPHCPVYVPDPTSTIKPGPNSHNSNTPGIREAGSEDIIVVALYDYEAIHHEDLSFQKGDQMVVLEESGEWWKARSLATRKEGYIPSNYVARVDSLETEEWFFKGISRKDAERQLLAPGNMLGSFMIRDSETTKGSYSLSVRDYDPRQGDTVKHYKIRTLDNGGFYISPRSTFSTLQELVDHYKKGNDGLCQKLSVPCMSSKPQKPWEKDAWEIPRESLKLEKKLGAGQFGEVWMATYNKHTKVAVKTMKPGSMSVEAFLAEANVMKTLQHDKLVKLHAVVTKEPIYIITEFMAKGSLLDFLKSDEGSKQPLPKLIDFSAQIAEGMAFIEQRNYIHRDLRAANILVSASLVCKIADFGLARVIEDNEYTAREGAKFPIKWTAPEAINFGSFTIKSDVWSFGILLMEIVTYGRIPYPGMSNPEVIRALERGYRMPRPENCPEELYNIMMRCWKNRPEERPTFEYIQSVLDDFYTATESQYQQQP

[9] = biological target: MERTK (UniProt Q12866); assay: as above
MERTK, sequence (Q12866 whole entry, looked up): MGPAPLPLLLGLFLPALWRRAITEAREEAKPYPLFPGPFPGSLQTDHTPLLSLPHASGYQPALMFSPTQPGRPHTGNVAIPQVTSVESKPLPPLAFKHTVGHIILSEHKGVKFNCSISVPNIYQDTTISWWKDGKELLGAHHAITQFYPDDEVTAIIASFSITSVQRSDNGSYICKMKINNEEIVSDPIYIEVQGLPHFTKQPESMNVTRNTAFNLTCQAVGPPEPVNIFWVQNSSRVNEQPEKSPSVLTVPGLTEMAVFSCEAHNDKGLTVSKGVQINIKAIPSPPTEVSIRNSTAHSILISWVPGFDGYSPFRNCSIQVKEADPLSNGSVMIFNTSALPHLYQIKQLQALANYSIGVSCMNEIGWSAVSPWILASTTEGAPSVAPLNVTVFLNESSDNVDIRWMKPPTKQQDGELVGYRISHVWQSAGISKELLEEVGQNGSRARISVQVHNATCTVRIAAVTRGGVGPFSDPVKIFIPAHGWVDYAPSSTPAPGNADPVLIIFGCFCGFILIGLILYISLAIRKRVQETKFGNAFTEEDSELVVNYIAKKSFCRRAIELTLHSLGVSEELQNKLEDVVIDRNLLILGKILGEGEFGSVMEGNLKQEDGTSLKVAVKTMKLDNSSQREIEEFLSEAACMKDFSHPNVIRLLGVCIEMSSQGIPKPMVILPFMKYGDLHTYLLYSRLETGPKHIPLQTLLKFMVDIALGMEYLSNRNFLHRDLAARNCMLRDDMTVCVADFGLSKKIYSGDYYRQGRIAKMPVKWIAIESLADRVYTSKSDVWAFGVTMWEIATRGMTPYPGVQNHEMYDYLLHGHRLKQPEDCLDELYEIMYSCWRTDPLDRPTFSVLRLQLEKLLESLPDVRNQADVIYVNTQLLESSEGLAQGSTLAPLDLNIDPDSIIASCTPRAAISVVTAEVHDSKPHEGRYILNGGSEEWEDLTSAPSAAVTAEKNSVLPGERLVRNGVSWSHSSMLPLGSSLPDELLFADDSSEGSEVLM

[10] = biological target: Jak2 (UniProt O60674); assay: as above
[11] = system: c-Src; assay: as above
[12] = system: AncSZ; assay: as above
[13] = biological target: FGFR3 (UniProt P22607); assay: as above
FGFR3, sequence (P22607 whole entry, looked up): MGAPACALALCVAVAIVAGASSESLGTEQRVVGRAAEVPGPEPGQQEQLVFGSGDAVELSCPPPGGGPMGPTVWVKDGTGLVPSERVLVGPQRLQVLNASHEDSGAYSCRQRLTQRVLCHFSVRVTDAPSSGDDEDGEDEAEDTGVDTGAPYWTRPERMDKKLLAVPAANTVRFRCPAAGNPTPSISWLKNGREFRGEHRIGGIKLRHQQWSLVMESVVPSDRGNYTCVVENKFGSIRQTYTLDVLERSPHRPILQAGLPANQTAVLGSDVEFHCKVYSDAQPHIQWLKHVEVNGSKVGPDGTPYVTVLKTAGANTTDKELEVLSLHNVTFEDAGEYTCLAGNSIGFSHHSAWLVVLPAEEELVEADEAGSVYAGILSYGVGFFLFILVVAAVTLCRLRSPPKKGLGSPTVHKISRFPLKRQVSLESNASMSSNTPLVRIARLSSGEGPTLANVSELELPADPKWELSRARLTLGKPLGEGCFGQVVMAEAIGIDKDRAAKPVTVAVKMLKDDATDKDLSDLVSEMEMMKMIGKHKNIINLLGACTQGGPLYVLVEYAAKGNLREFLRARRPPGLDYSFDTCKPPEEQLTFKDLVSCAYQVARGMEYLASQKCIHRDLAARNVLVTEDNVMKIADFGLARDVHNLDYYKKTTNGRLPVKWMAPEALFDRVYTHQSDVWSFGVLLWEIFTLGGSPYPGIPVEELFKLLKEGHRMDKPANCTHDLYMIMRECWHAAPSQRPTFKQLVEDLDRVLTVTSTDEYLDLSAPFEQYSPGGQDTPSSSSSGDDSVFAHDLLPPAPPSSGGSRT

[14] = biological target: EPHB2 (UniProt P29323); assay: as above
EPHB2, sequence (P29323 whole entry, looked up): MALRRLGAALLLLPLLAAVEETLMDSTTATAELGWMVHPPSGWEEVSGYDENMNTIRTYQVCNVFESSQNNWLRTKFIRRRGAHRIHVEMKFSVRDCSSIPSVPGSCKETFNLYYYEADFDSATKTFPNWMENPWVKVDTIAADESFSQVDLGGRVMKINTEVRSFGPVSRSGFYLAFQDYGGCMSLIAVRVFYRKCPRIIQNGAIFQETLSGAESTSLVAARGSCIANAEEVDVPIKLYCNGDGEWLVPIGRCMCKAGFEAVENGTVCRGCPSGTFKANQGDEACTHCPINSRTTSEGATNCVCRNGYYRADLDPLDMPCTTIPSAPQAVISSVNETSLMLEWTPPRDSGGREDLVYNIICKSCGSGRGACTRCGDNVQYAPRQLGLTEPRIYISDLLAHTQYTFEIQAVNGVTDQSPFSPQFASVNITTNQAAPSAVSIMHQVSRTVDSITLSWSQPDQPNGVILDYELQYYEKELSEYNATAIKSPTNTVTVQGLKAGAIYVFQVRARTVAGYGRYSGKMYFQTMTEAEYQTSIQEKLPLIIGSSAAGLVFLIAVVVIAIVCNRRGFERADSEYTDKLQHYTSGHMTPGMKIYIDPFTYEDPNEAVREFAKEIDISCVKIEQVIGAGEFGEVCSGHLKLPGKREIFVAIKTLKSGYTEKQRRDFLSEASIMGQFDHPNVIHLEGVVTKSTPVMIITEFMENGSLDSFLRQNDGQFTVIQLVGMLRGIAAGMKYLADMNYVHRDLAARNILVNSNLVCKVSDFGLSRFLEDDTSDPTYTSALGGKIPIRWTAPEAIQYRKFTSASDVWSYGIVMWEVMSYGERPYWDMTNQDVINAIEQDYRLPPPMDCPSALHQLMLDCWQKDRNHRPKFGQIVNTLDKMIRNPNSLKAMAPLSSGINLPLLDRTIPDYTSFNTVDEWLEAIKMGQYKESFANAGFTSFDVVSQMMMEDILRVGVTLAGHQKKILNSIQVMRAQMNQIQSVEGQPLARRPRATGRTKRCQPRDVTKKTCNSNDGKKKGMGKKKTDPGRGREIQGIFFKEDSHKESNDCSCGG

[15] = biological target: FGFR1 (UniProt P11362); assay: as above
[16] = biological target: EPHB1 (UniProt P54762); assay: as above
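Wherever SH2 binding enrichment of the phosphorylated peptide, bacterial display is given: peptide library displayed on the E. coli surface as eCPX fusions, selected cells deep-sequenced, score is each peptide's frequency after selection divided by its frequency in the input.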
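Wherever phosphorylation enrichment, bacterial display is given: 11-residue human phosphosite peptides and single-mutation variants displayed on the E. coli surface, counted by deep sequencing, each peptide's frequency after selection divided by its frequency in the unselected input library; frequency after pTyr selection over input frequency; kinase dosed for 20-30% of maximal phosphorylation in three min.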

SH2 binding enrichment [1] | SH2 binding enrichment [2] | SH2 binding enrichment [3] | Sequence | phosphorylation enrichment [4] | phosphorylation enrichment [5] | phosphorylation enrichment [6] | phosphorylation enrichment [7] | phosphorylation enrichment [8] | phosphorylation enrichment [9] | phosphorylation enrichment [10] | phosphorylation enrichment [11] | phosphorylation enrichment [12] | phosphorylation enrichment [13] | phosphorylation enrichment [14] | phosphorylation enrichment [15] | phosphorylation enrichment [16]
0.62 | 0.798 | 0.442 | VYSSDYFSFVL [USP24_Y2138] | 0.875 | 2.92 | 1.35 | 4.46 | 1.95 | 5.03 | 5.25 | 4.61 | 2.21 | 7.74 | 3.95 | 9.06 | 3.74
0.628 | 0.841 | 0.654 | FSQETYYRVSN [ABCD1_Y180_Q178E] | 0.492 | 1.03 | 0.812 | 1.77 | 4.2 | 3.78 | 6.03 | 4.41 | 1.26 | 3.85 | 2.73 | 4.96 | 4.43
1.37 | 0.972 | 0.593 | RYLKDYGEFEV [GINS1_Y156_C152Y] | 1 | 0.771 | 1.6 | 1.54 | 1 | 0.792 | 1.2 | 1.69 | 1.75 | 1.36 | 0.839 | 1.16 | 1.16
1.07 | 1.19 | 1.37 | CSGNCYLDIRP [FBN1_Y1535_R1530C] | 0.404 | 0.509 | 0.646 | 0.446 | 0.504 | 0.49 | 0.514 | 0.609 | 0.591 | 0.532 | 0.442 | 0.646 | 0.452
0.592 | 0.66 | 0.64 | RSRQIYDAFIM [GRK3_Y109_YF] | 9.57 | 9.12 | 0.48 | 8.83 | 6.86 | 7.46 | 0.359 | 6.12 | 0.51 | 0.7 | 2.6 | 0.339 | 2.49
0.699 | 0.83 | 0.544 | ESKAGYRVPRS [CLDN7_Y195] | 0.52 | 0.681 | 0.583 | 0.369 | 0.416 | 0.339 | 0.524 | 0.43 | 0.543 | 0.352 | 0.327 | 0.305 | 0.303
1.12 | 1.37 | 1.26 | KLQQWYREHRS [GPI_Y17] | 0.392 | 0.548 | 0.613 | 0.382 | 0.44 | 0.355 | 0.567 | 0.384 | 0.6 | 0.475 | 0.399 | 0.434 | 0.37
27.9 | 0.721 | 3.25 | HTVVSYAEVRA [CLOCK_Y378] | 0.52 | 0.781 | 1.23 | 0.897 | 0.899 | 0.509 | 0.779 | 0.742 | 1.12 | 0.599 | 0.809 | 0.62 | 0.627
0.78 | 0.863 | 0.481 | ISNATYKQIGL [FLT1_Y199_E201Q] | 0.362 | 0.566 | 0.582 | 0.434 | 0.349 | 0.419 | 0.513 | 0.399 | 0.667 | 0.399 | 0.342 | 0.378 | 0.421
1.18 | 1.18 | 0.813 | IRTIDYRFTVS [IDS_Y497_W502S_YF] | 0.596 | 0.989 | 1.05 | 0.424 | 0.444 | 0.441 | 0.989 | 0.458 | 0.907 | 0.683 | 0.547 | 0.483 | 0.496
0.691 | 0.772 | 0.649 | KDHPDYKFQLR [SOX10_Y171_P175L_YF] | 0.65 | 0.512 | 0.824 | 0.409 | 0.406 | 0.454 | 0.698 | 0.512 | 0.798 | 0.633 | 0.492 | 0.478 | 0.49
0.314 | 0.933 | 0.962 | LYEDCYLLGTS [ASS1_Y87_R86C] | 13.4 | 1.08 | 2.12 | 4.12 | 1.9 | 3.13 | 1.78 | 4.68 | 2.29 | 1.28 | 3.42 | 1.26 | 7.04
0.726 | 0.842 | 0.442 | EKMWTYMRSAE [GRIA4_Y695] | 0.359 | 0.81 | 1.01 | 0.433 | 0.432 | 0.299 | 0.836 | 0.404 | 1.04 | 0.602 | 0.62 | 0.409 | 0.573
0.734 | 1.12 | 0.861 | KAVLHYKHQNQ [MTOR_Y1804_E1799K] | 0.469 | 0.891 | 0.863 | 0.36 | 0.449 | 0.366 | 0.622 | 0.366 | 0.6 | 0.629 | 0.328 | 0.427 | 0.423
1.66 | 1.68 | 1.6 | RWGQKHMTAVV [CYBA_Y72_Y72H] | 0.692 | 0.81 | 1.39 | 0.699 | 0.5 | 0.587 | 2.7 | 0.496 | 1.13 | 0.74 | 0.559 | 0.483 | 0.516
0.55 | 0.601 | 0.488 | ADRNHYRRFPR [YBX1_Y145_YF] | 0.603 | 0.871 | 0.71 | 0.519 | 0.556 | 0.552 | 0.654 | 0.689 | 0.8 | 0.508 | 0.54 | 0.539 | 0.452

Sequence | SH2 binding enrichment [1] | SH2 binding enrichment [2] | SH2 binding enrichment [3] | phosphorylation enrichment [4] | phosphorylation enrichment [5] | phosphorylation enrichment [6] | phosphorylation enrichment [7] | phosphorylation enrichment [8] | phosphorylation enrichment [9] | phosphorylation enrichment [10] | phosphorylation enrichment [11] | phosphorylation enrichment [12] | phosphorylation enrichment [13] | phosphorylation enrichment [14] | phosphorylation enrichment [15] | phosphorylation enrichment [16]
PVKDPYVMFPQ [PLEKHG2_Y489] | 0.453 | 0.569 | 2.35 | 0.49 | 0.636 | 1.03 | 1.62 | 0.685 | 0.47 | 0.964 | 2.43 | 0.982 | 1.54 | 0.562 | 2.05 | 0.603
